Experiment [1] addresses T1, murine galanin (mature, processed form) (murine, UniProt P47212 33-61, not fully specified).
T1 construct: mature
T1 peptide (looked up): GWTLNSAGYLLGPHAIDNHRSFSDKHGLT
Description: epitope mapping.

Experiment [2] concerns the target T2, human galanin (mature, processed form) (human, UniProt P22466 33-62, 125I-labelled in the filtration and immunoprecipitation assays; biotinylated in the IGEN assay and in the BIAcore assay of Table 4).
T2 construct: mature; the assays used the mature peptide; also called biotinylated galanin
T2 peptide (looked up): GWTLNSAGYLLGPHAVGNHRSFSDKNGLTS
Description: BIAcore SPR; biotinylated galanin on a streptavidin chip, MAb flowed. The protocol: The galanin binding assay uses the ORIGEN technology (IGEN, Gaithersburg, Md.) and measures solution state binding. 0.75 μg/ml biotinylated galanin and 2 μg/ml ORI-TAG anti-mouse IgG were preincubated with serially diluted MAbs. 0.4 mg/ml streptavidin-coated Dyna beads were added, incubated, and read on an IGEN M8 Analyzer. In the plasmon surface resonance assay, biotinylated galanin was bound to a streptavidin-coated sensor chip and MAbs allowed to pass through the flow cells in order to generate on and off rates. In every assay tested, the MAbs ranked in virtually the same order.
(In SPR one partner is held on a chip, and binding of the other changes the refractive index at the surface.)

The target in experiment [3] is T2, human galanin (mature, processed form). Description: BIAcore 3000; IgG captured by goat anti-human IgG Fc on CM5, human galanin peptide flowed; 1:1 Langmuir fit. From the text:
In terms of ELISA signal, the top 17 Fab fragments consisted of various combinations of three light chains and five heavy chains. For example, the heavy variable region of Fab P1A7 was identical to the heavy variable regions of Fabs R2E9 and R2E8. The five heavy variable regions were amplified by PCR and the PCR products were subcloned into a human IgG1 heavy chain mammalian expression vector, pVE414N. The three light variable region products were amplified by PCR and were subcloned into a human kappa light chain mammalian expression vector, pDC414N. The sequences of the heavy and light chains constructs were confirmed by DNA sequencing. Fab fragment P1A7 yielded the strongest ELISA signal. To determine which heavy or light variable regions might yield the highest affinity antibody, each heavy chain was co-expressed with the P1A7 light chain, and each light chain was co-expressed with the P1A7 heavy chain. These IgG heavy and light chain combinations were expressed in […] and were purified from the cell culture medium using protein A affinity chromatography. Affinities of these purified antibodies were measured on a BIAcore 3000. Goat anti-human IgG Fc antibody immobilized on CM5 sensor chips was used to capture P1A7 and the variants. Human galanin peptide was flowed over the chip surface with captured anti galanin antibody. The binding kinetics was analyzed using the model fit of 1:1 Langmuir+local Rmax+Mass Transfer. […] Antibodies with P1A7 light chain paired with the five different heavy chains yield nearly identical dissociation constants.

Experimental findings from patent US20050152896A1 (Amgen, published 2005) are described below.

B1: murine monoclonal antibody 2E11 (antibody, V domains shown)
VH: EIQLQQSGAEVMKPGASVKISCKATGYTFSNYWIEWIKQRPGHGLEWIGEILPGSESTKYNEKFKGKATFTTDTSSNTAYMQLSSLTSEDSAVYYCATFYGGFDYWGQGTTLTVSS
VL: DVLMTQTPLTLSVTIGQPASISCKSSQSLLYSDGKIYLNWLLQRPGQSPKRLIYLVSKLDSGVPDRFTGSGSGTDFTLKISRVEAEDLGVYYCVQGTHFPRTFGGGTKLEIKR
notes: the legend is followed
B1: the binding result in experiment [1] was “binds”. Also, in experiment [2], the Ka stood at 5e+08 M⁻¹ and binding was characterised by a dissociation constant (Kd) of 2.1 nM.

B2: murine monoclonal antibody 4B3 (antibody, mouse IgG1, V domains shown)
VH: EIQLQQSEAELVKPGASVRLSCATSGFNIKDYYIHWVKQTTEQGLEWIGRIDPEDGETEYAPKFQGKATIAADTSSNTAYLLLNSLSSEDTAVYYCTRGYASWGQGTTLTVSS
VL: DVLMTQTPLSLSVSLGDQASISCRSSQSFVHSDGNTYLEWYLQKSGQSPKLLIYKVSNRFSGVPDRFSGSGSGTDFTLKINRVEAEDLGVYYCFQGSHVPYTFGGGTKLEIKR
notes: purified from ascites
In the case of B2, the binding result in experiment [1] is “binds”. For the same molecule, in experiment [2], the Ka amounted to 1.4e+10 M⁻¹ and the affinity, expressed as Kd, was 0.07 nM.

B3: murine monoclonal antibody 1D7 (antibody, mouse IgG1, V domains shown)
VH: EIQLQQSEAELVKPGASVRLSCATSGFNIKDYYIHWVKQTTEQGLEWIGRIDPEDGETEYAPKFQGKATIAADTSSNTAYLLLNSLSSEDTAVYYCTRGYASWGQGTTLTVSS
VL: DVLMTQTPLSLSVSLGDQASISCRSSQSFVHSDGNTYLEWYLQKSGQSPKLLIYKVSNRFSGVPDRFSGSGSGTDFTLKINRVEAEDLGVYYCFQGSHVPYTFGGGTKLEIKR
notes: purified from ascites; also called hybridoma 1D7D1 (ATCC PTA-5650)
B3: the binding result in experiment [1] is given as “binds”. Besides, in experiment [2], the Ka was 1.5e+10 M⁻¹ and the affinity, expressed as Kd, was 0.09 nM.

B4: murine monoclonal antibody 2F8 (antibody, mouse IgG1, V domains shown)
VH: EVQLQQSGAELVRPGALVKLSCKASGFNIEDYYIHWVRQRPEEGLEWIGRIDPENGNTIYDPKFQGKASLTADTSSNTAYLQLSSLTSEDTAVYFCARGYVDWGQGTLVTVSA
VL: DVLMTQTPLSLPVSLGDQASISCRSSQSIVHSDGDTYLEWYLQKPGQSPKLLIYKVSNRFSGVPDRFSGSGSGTDFTLKIIRVEAEDLGLYFCFQGSHVPYTFGGGTKLEIKR
For the molecule B4, the binding result in experiment [1] is reported as “binds”. In addition, in experiment [2], the Ka is 6.8e+09 M⁻¹ and the affinity, expressed as Kd, was 0.15 nM.

B5: murine monoclonal antibody 5B4 (antibody, mouse IgG2a, V domains shown)
VH: EVQLQQSGAELVRPGALVKLSCKASGFNIEDYYMHWVRQRPEEGLEWIGRIDPENGNTIYDPKFQGKASITADTSSNTAYLQLSSLTSEDTAVYYCVRGYVDWGQGTLVTVSA
VL: DVLMTQTPLSLPVSLGDQASISCRSSQSIVHSDGDTYLEWYLQKAGQSPKLLIYKVSNRFSGVPDRFSGSGSGTDFTLKISRVEAEDLGLYYCFQGSHVPYTFGGGTKLEIKR
notes: purified from ascites; also called hybridoma 5B4C1 (ATCC PTA-5651)
For B5, the binding result in experiment [1] is “binds”. Also, in experiment [2], the Ka is 7.5e+09 M⁻¹ and binding was characterised by a dissociation constant (Kd) of 0.13 nM.

B6: murine monoclonal antibody 2H9 (antibody, mouse IgG1, V domains shown)
VH: EIQLQQSEAELVKPGASVRLSCATSGFNIKDYYIHWVKQTTEQGLEWIGRIDPEDGETEYAPKFQGKATIAADTSSNTAYLLLNSLSSEDTAVYYCTRGYASWGQGTTLTVSS
VL: DVLMTQTPLSLSVSLGDQASISCRSSQSFVHSDGNTYLEWYLQKSGQSPKLLIYKVSNRFSGVPDRFSGSGSGTDFTLKINRVEAEDLGVYYCFQGSHVPYTFGGGTKLEIKR
In the case of B6, in experiment [2], the Ka came to 6.7e+09 M⁻¹ and the Kd (in general, the equilibrium constant for the complex coming apart) came to 0.15 nM.

B7: murine monoclonal antibody 1G12 (antibody, mouse IgG1, V domains shown)
VH: EVQLQQSGAELVKPGASVQLSCTASGFNIKDYYIHWVQQRTEQGLEWIGRIDPEDGEIEYAPKFQDKATITADTSSNTAYLQLSSLTSEDSAVYYCTRGYASWGQGTTLTVSS
VL: DVLMTQTPLSLPVSLGDQASISCRSSQTFVHSDGNTYLEWYLQKPGQSPKLLIYKVSNRFSGVPDRFSGSGSGTDFTLKISRVEAEDLGVYYCFQGSHVPYTFGGGTKLEIKR
notes: The legend prints 'murine 1G2' for the VH
As for B7, the binding result in experiment [1] is “binds”. In experiment [2], this molecule registered a Ka of 9.3e+09 M⁻¹ and a Kd of 0.11 nM.

B8: murine monoclonal antibody 1A1 (antibody, V domains shown)
VH: EIQLQQSEAELVRPGALVKLSCKTSGFNIKDYYMHWVKQRPEQGLEWIGRIDPENDNSIYDPNFQGKASITADTSSNTAYLQLSSLTSEDTAVYYCVRGYVDWGQGTLVTVSA
VL: DVLMTQTPLSLPVSLGDQASISCRSSQSIVHSDGDTYLEWYLQKPGQSPKLLIFKVSNRFSGVPDRFSGSGSGTDFTLKISRVEAEDLGVYYCFQGSHVPYTFGGGTKLEIKR
notes: the legend is followed
Take B8: in experiment [2], the Ka was 2.5e+09 M⁻¹ and binding was put at a Kd of 0.4 nM.

B9: humanized 5B4 IgG1: light chain zu5B4 v04 with heavy chain zu5B4 v04 (antibody, V domains shown)
VH: EVQLVQSGAEVKKPGATVKISCKVSGFNIEDYYMHWVQQAPGKGLEWMGRIDPENGNTIYDPKFQGRVTITADTSTNTAYLDLSSLRSEDTAVYYCARGYVDWGQGTLVTVSS
VL: DVVMTQSPLSLPVTLGQPASISCRSSQSIVHSDGDTYLEWYLQRPGQSPMLLIYKVSNRFSGVPDRFSGSGSGTDFTLKITRVEAEDVGVYYCFQGSHVPYTFGGGTKVEIKR
notes: also called P1A7 (as IgG1); humanized 5B4-v4
For B9, in experiment [3], the Kd was 1.8 nM; the dissociation rate constant (koff) (as a rule, the first-order rate constant of dissociation) stood at 0.0059 s⁻¹; the kon (in general, a measure of how fast the partners come together) amounted to 3.3e+06 M⁻¹ s⁻¹.

B10: humanized 5B4 IgG1: light chain zu5B4 v04 with heavy chain zu5B4 v12 (antibody, V domains shown)
VH: EVQLVQSGAEVKKPGATVKISCKVSGFNIEDYYMHWVQQAPGKGLEWMGRIDPENGNTIYDPKFQGRATITADTSTDTAYLDLSSLRSEDTAVYYCARGYVDWGQGTLVTVSS
VL: DVVMTQSPLSLPVTLGQPASISCRSSQSIVHSDGDTYLEWYLQRPGQSPMLLIYKVSNRFSGVPDRFSGSGSGTDFTLKITRVEAEDVGVYYCFQGSHVPYTFGGGTKVEIKR
notes: Human IgG1 / human kappa, expressed in E5 cells; VH of humanized 5B4-v12, VL of humanized 5B4-v4
Regarding B10, in experiment [3], the Kd was determined as 1.5 nM, the off-rate constant (koff) was 0.0048 s⁻¹ and the kon turned out to be 3.2e+06 M⁻¹ s⁻¹.

B11: humanized 5B4 IgG1: light chain zu5B4 v04 with heavy chain zu5B4 v11 (antibody, V domains shown)
VH: EVQLVQSGAEVKKPGATVKISCKVSGFNIEDYYMHWVQQAPGKGLEWMGRIDPENGNTIYDPKFQGRVTITADTSTNTAYMDLSSLRSEDTAVYYCARGYVDWGQGTLVTVSS
VL: DVVMTQSPLSLPVTLGQPASISCRSSQSIVHSDGDTYLEWYLQRPGQSPMLLIYKVSNRFSGVPDRFSGSGSGTDFTLKITRVEAEDVGVYYCFQGSHVPYTFGGGTKVEIKR
notes: Human IgG1 / human kappa, expressed in E5 cells; VH of humanized 5B4-v11, VL of humanized 5B4-v4
Turning to B11, in experiment [3], the Kd was found to be 1.7 nM, the dissociation rate constant (koff) turned out to be 0.0056 s⁻¹ and the kon came out at 3.2e+06 M⁻¹ s⁻¹.

B12: humanized 5B4 IgG1: light chain zu5B4 v13 with heavy chain zu5B4 v04 (antibody, V domains shown)
VH: EVQLVQSGAEVKKPGATVKISCKVSGFNIEDYYMHWVQQAPGKGLEWMGRIDPENGNTIYDPKFQGRVTITADTSTNTAYLDLSSLRSEDTAVYYCARGYVDWGQGTLVTVSS
VL: DVVMTQSPLSLPVTLGQPASISCRSSQSIVHSDGDTYLEWYQQRPGQSPMLLIYKVSNRFSGVPDRFSGSGSGTDFTLKITRVEAEDVGVYYCFQGSHVPYTFGGGTKVEIKR
notes: Human IgG1 / human kappa, expressed in E5 cells; VH of humanized 5B4-v4, VL of humanized 5B4-v13
For the molecule B12, in experiment [3], the Kd was 2 nM, the koff was found to be 0.007 s⁻¹ and the kon was found to be 3.5e+06 M⁻¹ s⁻¹.

B13: humanized 5B4 IgG1: light chain zu5B4 v04 with heavy chain zu5B4 v13 (antibody, V domains shown)
VH: EVQLVQSGAEVKKPGATVKISCKVSGFNIEDYYMHWVQQAPGKGLEWIGRIDPENGNTIYDPKFQGRVTITADTSTNTAYMDLSSLRSEDTAVYYCARGYVDWGQGTLVTVSS
VL: DVVMTQSPLSLPVTLGQPASISCRSSQSIVHSDGDTYLEWYLQRPGQSPMLLIYKVSNRFSGVPDRFSGSGSGTDFTLKITRVEAEDVGVYYCFQGSHVPYTFGGGTKVEIKR
notes: Human IgG1 / human kappa, expressed in E5 cells; VH of humanized 5B4-v13, VL of humanized 5B4-v4
In the case of B13, in experiment [3], the Kd was 1.8 nM, the koff is 0.005 s⁻¹ and the on-rate (kon) was determined as 2.8e+06 M⁻¹ s⁻¹.

B14: humanized 5B4 IgG1: light chain zu5B4 v05 with heavy chain zu5B4 v04 (antibody, V domains shown)
VH: EVQLVQSGAEVKKPGATVKISCKVSGFNIEDYYMHWVQQAPGKGLEWMGRIDPENGNTIYDPKFQGRVTITADTSTNTAYLDLSSLRSEDTAVYYCARGYVDWGQGTLVTVSS
VL: DVVMTQSPLSLPVTLGQPASISCRSSQSIVHSDGDTYLEWYQQRPGQSPMSLIYKVSNRFSGVPDRFSGSGSGTDFTLKITRVEAEDVGVYYCFQGSHVPYTFGGGTKVEIKR
notes: Human IgG1 / human kappa, expressed in E5 cells; VH of humanized 5B4-v4, VL of humanized 5B4-v5
For B14, in experiment [3], the Kd worked out at 2.3 nM, the off-rate (koff) amounted to 0.0095 s⁻¹ and the kon amounted to 4.2e+06 M⁻¹ s⁻¹.

B15: humanized 5B4 IgG1: light chain zu5B4 v04 with heavy chain zu5B4 v06 (antibody, V domains shown)
VH: EVQLVQSGAEVKKPGATVKISCKVSGFNIEDYYMHWVQQAPGKGLEWIGRIDPENGNTIYDPKFQGRATITADTSTNTAYLDLSSLRSEDTAVYYCARGYVDWGQGTLVTVSS
VL: DVVMTQSPLSLPVTLGQPASISCRSSQSIVHSDGDTYLEWYLQRPGQSPMLLIYKVSNRFSGVPDRFSGSGSGTDFTLKITRVEAEDVGVYYCFQGSHVPYTFGGGTKVEIKR
notes: Human IgG1 / human kappa, expressed in E5 cells; VH of humanized 5B4-v6, VL of humanized 5B4-v4
In the case of B15, in experiment [3], the Kd amounted to 1.6 nM, the koff came to 0.0051 s⁻¹ and the on-rate constant (kon) worked out at 3.2e+06 M⁻¹ s⁻¹.
